The record followed here is patent US20260042850A1 (LOCKBODY THERAPEUTICS, published 2026).

Changes are numbered by the printed parent chain. Numbers in names are those of the source.

Sequences and labels used below:
B1: MH8 (antibody, IgG4, V domains shown)
VH: QVQLVQSGAEVKKPGASVKVSCKASGYTFTSYTMHWVRQAPGQGLEWMGIINPSGGSTSYAQKFQGRVTMTRDTSTSTVYMELSSLRSEDTAVYYCARQEITTEFDYWGQGTLVTVSS
VL: EIVLTQSPGTLSLSPGERATLSCRASQSVSSYAQSYLHWYQQKPGQAPRLLIYRGSTRETGIPDRFSGSGSGTDFTLTISRLEPEDFAVYYCQQSGSSPLTFGGGTKVEIK
B2: MH9 (antibody, IgG4, V domains shown)
VH: B1 VH
VL: B1 VL with S95Y
B3: MH7-2 (antibody, human IgG4, V domains shown)
VH: B1 VH
VL: B1 VL with Q34N, G96K, S97E
B4: MH7-3 (antibody, human IgG4, V domains shown)
VH: B1 VH
VL: B1 VL with G96K, S97E
B5: h224G11 (humanized 224G11) (antibody, human IgG4, V domains shown)
VH: QVQLVQSGAEVKKPGASVKVSCKASGYIFTAYTMHWVRQAPGQGLEWMGWIKPNNGLANYAQKFQGRVTMTRDTSISTAYMELSRLRSDDTAVYYCARSEITTEFDYWGQGTLVTVSS
VL: DIVMTQSPDSLAVSLGERATINCKSSESVDSYANSFLHWYQQKPGQPPKLLIYRASTRESGVPDRFSGSGSGTDFTLTISSLQAEDVAVYYCQQSKEDPLTFGGGTKVEIK
notes: also called Humanized h224G11; 224G11 IgG4(S228P)

T2 sequence (A0M8R7 25-932 S170N/I621T): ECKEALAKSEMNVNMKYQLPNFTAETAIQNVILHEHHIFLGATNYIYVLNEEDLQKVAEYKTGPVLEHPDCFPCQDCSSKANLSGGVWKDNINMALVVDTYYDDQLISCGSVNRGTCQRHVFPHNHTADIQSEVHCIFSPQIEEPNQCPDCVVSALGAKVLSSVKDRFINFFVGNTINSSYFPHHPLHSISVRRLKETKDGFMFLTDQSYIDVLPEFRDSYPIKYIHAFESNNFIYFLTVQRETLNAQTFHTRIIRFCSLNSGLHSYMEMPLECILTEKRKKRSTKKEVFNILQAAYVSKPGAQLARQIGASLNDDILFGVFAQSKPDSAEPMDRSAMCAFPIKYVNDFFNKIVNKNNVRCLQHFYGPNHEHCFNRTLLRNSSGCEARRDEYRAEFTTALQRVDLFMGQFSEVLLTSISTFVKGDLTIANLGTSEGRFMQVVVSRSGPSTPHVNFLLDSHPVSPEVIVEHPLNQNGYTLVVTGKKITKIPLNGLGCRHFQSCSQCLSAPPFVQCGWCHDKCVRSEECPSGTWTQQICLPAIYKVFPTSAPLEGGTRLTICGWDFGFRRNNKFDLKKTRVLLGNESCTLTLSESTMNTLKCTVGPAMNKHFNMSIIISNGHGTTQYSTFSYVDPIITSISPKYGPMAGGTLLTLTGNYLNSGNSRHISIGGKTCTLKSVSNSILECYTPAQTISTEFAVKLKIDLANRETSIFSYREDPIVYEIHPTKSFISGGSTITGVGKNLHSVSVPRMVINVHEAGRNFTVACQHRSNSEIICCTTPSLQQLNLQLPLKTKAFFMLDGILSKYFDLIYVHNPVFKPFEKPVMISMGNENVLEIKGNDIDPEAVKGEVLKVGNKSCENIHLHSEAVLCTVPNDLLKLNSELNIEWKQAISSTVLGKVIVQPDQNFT
T4 sequence (P08581 25-1390 limits assumed): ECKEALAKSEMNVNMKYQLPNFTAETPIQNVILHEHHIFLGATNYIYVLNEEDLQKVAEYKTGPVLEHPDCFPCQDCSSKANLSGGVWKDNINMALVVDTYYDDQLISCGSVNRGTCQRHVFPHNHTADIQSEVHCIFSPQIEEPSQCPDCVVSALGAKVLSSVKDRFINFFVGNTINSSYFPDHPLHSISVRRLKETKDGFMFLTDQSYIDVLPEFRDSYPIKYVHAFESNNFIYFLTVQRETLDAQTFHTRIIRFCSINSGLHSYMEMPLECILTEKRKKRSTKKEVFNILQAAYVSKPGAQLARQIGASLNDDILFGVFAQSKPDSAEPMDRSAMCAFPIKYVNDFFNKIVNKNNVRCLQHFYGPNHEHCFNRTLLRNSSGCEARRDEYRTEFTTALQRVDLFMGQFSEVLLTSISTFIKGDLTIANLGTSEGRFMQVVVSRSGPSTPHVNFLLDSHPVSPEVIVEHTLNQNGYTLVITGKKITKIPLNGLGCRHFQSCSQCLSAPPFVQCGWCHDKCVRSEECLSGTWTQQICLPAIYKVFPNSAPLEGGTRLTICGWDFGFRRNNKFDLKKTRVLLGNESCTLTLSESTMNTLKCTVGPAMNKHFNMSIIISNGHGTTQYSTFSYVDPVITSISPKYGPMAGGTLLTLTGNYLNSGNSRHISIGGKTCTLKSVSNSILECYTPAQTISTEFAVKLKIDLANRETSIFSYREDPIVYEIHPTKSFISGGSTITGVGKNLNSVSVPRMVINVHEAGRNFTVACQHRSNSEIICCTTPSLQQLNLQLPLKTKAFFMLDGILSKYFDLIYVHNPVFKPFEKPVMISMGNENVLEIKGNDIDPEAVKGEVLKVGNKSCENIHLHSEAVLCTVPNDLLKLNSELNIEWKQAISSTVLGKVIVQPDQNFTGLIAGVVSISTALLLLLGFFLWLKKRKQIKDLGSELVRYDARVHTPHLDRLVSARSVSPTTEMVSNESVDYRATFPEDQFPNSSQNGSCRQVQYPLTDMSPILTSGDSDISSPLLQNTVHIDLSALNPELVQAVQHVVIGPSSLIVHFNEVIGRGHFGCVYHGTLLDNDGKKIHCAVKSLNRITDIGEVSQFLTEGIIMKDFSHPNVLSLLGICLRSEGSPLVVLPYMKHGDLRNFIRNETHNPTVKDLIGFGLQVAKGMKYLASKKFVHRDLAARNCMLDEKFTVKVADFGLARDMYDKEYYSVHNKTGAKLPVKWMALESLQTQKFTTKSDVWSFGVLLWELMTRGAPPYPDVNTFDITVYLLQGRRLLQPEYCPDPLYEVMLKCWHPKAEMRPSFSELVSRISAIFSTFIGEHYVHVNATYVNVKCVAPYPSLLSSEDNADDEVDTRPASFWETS
T7 sequence (P08581 25-932 limits assumed): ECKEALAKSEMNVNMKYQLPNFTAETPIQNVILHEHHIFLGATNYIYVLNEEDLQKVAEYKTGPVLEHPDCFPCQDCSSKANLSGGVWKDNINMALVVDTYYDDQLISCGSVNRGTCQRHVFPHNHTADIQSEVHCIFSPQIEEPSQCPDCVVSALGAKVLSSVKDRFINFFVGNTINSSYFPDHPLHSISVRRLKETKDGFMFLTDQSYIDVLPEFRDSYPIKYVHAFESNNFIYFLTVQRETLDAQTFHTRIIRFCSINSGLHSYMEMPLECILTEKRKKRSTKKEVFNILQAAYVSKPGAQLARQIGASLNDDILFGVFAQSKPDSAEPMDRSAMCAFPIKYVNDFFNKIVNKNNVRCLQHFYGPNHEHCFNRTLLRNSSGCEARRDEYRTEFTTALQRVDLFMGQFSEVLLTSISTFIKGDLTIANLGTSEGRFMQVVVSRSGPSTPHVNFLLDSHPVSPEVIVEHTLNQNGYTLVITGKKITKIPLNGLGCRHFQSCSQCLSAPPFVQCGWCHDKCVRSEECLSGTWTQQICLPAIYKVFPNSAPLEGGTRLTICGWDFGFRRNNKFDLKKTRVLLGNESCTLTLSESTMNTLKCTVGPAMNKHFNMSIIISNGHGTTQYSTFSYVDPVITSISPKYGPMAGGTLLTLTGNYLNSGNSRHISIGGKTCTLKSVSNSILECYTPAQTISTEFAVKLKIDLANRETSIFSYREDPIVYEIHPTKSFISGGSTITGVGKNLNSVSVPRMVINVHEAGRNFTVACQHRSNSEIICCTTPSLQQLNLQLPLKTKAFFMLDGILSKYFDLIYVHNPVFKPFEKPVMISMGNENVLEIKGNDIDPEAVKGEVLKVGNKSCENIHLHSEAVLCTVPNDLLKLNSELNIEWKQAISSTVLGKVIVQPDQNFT

For the first experiment, the target named is T1, human C-MET His tagged, monomeric (human, UniProt P08581 25-932).
T1 construct: also called monomeric human C-MET; biotinylated human C-MET-His
T1 sequence (P08581 25-932): as the sequence (P08581 25-932 limits assumed) above
Nature of the experiment: SPR Biacore. As for the experimental part: (§1) Affinity (KD) of purified IgGs was determined via SPR with antigen in-solution on a Biacore® 3000 (GE). A mouse anti-human antibody (CH1 specific) was immobilized on a CM5 Sensor Chip to a level of 2000 RU in acetate buffer at pH 4.5 using amine coupling following the Wizard instructions for two channels. One channel was used for background signal correction. The standard running buffer HBS-EP pH 7.4 was used. Regeneration was performed with a single injection of 10 μl of 10 mM Glycine at pH 1.5 at 20 μl/minute. IgG samples were injected for 2 minutes at 50 nM at 30 μl/min followed by and off-rate of 60 seconds. The monomeric antigen (human C-MET His tagged or cynomolgus monkey C-MET His tag) was injected in two fold serial dilutions from 100 nM down to 6 nM, for 2 minutes at 30 μl/min followed by an off-rate of 300 seconds. The obtained sensorgrams were analysed using the Biacore® 3000 evaluation (BIAevaluation) software. The KD was calculated by simultaneous fitting of the association and dissociation phases to a 1:1 Langmuir binding model.
For orientation: In SPR one partner is held on a chip, and binding of the other changes the refractive index at the surface.
Consider B1, for which the “fold loss of KD against MH7” value lay within 10 to 20 fold.
With B2, the “fold loss of KD against MH7” value fell in the range of 10 to 20 fold.

A further experiment concerns the target T2, cynomolgus monkey C-MET His tag, monomeric (cynomolgus monkey, UniProt A0M8R7 25-932 (Papio anubis entry)).
T2 construct: also called monomeric cyno C-MET; cyCMET
Nature of the experiment: SPR Biacore. As for the experimental part:
as §1
In the case of B1, the “fold loss of KD against MH7” value was in the range of 10 to 20 fold.
B2: the “fold loss of KD against MH7” value lay within 10 to 20 fold.

For another experiment, the target named is T3, Insulin.
T3 construct: Coated surface of the polyreactivity (development risk) ELISA
T3 sequence (P01308 25-54, chain 1 of 2): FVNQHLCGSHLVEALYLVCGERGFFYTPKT
T3 sequence (P01308 90-110, chain 2 of 2): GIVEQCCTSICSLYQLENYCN
Nature of the experiment: polyreactivity ELISA on insulin. Set-up: scale not given here. On the technique in general: ELISA stands for enzyme-linked immunosorbent assay.
Take B3: the reactivity score was determined as 1.
Regarding B4, the reactivity score was found to be 1.
Regarding B5, the reactivity score came out at 1.

A further experiment addresses T4, human C-MET on stably transfected CHO-K1 cells (human, UniProt P08581 25-1390).
T4 construct: also called hucMET; human C-MET+ CHO-K1 cells
Nature of the experiment: flow cytometry, C-MET CHO-K1 cells. As for the experimental part:
(§2) Purified IgGs were tested in FACs for binding to human and cyno C-MET expressed on CHO-K1 stable cell lines and CHO-K1 wild-type cells. The IgG samples were titrated in three-fold serial dilutions starting at 500 nM to 0.08 nM. Binding of IgGs was detected with a mouse anti-human IgG conjugated to FITC. Results were analyzed by examining the Mean Fluorescence Intensity (MFI) of 10000 cells per sample in the BL-1 channel detector of a flow cytometer (Attune™ NxT Acoustic Focusing Cytometer, Invitrogen/ThermoFisher Scientific).
(§3) Antibodies to C-MET were analysed for concentration-dependent binding at the cell surface via flow cytometry. CHO-K1 cells were stably transfected with either human or cyno C-MET full-length cDNAs. Anti-C-MET IgGs and an isotype control IgG4(S228P) were then all tested in IgG4(S228P) format, over a concentration range of 500-0.08 nM for binding to human (FIG. 5A) and cyno (FIG. 5B) CHO-K1 cells.
On the technique in general: A flow cytometer gives signals particle by particle.
For the molecule B3, the “maximum MFI, fold over Isotype IgG4 background” value (“maximum MFI, fold” for short) was over 10 fold.
Consider B1, for which the “maximum MFI, fold” value is over 10 fold.
For the molecule B4, the “maximum MFI, fold” value is over 10 fold.
Regarding B2, the “maximum MFI, fold” value was over 10 fold.
On the same count and under the same terms, next, B5: over 10 fold.

For the next experiment, the target named is T5, cynomolgus monkey C-MET on stably transfected CHO-K1 cells (cynomolgus monkey, UniProt A0M8R7 25-1381 (Papio anubis entry)).
T5 construct: also called cycMET; cyno C-MET+ CHO-K1 cells
T5 sequence (A0M8R7 25-1381 S170N/I621T limits assumed): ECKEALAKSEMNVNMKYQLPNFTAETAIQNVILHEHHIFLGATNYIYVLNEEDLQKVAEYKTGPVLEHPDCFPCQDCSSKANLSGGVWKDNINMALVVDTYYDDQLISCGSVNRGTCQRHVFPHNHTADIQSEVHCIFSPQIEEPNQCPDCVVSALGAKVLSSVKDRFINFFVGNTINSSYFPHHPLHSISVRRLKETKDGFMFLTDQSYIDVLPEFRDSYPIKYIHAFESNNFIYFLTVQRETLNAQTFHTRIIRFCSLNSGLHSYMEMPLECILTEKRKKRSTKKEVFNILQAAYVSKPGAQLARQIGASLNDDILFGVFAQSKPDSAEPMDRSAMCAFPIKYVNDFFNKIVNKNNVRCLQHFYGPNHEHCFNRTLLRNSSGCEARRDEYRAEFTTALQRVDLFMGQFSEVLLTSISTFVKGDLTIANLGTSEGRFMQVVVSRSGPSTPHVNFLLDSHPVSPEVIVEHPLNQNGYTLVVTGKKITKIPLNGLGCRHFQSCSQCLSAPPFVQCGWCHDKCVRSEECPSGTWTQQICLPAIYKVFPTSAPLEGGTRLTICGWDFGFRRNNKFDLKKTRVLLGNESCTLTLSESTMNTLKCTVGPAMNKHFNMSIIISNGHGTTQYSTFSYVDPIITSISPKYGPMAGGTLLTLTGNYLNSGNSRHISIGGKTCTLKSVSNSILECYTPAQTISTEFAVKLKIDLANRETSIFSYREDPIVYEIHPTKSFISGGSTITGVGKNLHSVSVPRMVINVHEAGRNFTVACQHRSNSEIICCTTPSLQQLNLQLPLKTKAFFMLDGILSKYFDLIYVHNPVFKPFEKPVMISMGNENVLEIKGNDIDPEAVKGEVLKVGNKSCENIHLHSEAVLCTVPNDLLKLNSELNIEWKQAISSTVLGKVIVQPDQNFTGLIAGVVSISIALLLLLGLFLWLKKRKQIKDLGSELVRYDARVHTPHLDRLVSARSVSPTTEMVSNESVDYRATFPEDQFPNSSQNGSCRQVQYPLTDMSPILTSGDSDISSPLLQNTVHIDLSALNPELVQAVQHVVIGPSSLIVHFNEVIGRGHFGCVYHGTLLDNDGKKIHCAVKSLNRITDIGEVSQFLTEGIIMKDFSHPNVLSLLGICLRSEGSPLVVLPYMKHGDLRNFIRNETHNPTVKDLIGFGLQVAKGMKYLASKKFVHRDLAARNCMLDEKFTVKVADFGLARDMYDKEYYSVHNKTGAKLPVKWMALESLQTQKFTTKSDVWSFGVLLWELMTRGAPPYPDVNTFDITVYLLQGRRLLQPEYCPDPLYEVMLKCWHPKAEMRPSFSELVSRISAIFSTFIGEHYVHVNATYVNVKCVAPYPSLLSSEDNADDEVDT
Nature of the experiment: flow cytometry, C-MET CHO-K1 cells. As for the experimental part:
as §2, §3
Consider B3, for which the “maximum MFI, fold” value was over 10 fold.
In the case of B1, the “maximum MFI, fold” value is over 10 fold.
On to B4, for which the “maximum MFI, fold” value is over 10 fold.
Consider B2, for which the “maximum MFI, fold” value was over 10 fold.
As for B5, the “maximum MFI, fold” value was over 10 fold.

Another experiment deals with T4, human C-MET on stably transfected …. Nature of the experiment: flow cytometry, C-MET CHO-K1 cells. This is another data set of the same source. As for the experimental part: as §2
The EC50 is the concentration that produces a half-maximal response. In turn, B1 yielded an EC50 of 1240 pM.
Same read-out and setting: next, B2: 1230 pM; B5: 6830 pM.

The next experiment has as its target T5, cynomolgus monkey C-MET on stably …. Description: flow cytometry, C-MET CHO-K1 cells. The source holds these as a separate data set. The protocol: as §2
For the molecule B1, the concentration giving a half-maximal response (EC50) was found to be 570 pM.
The molecule B2 displayed a concentration giving a half-maximal response (EC50) of 650 pM.
With B5, the concentration giving a half-maximal response (EC50) was determined as 820 pM.

The next experiment deals with T1, human C-MET His tagged, monomeric. Description: SPR Biacore, IgG captured, monomeric C-MET-His analyte. As for the experimental part: as §1
The term Kd denotes a measure of binding affinity in units of concentration. A word on the koff: it is a measure of how fast the partners let go of each other. As usually defined, the kon is the second-order rate constant of association. B3: the dissociation constant (Kd) came out at 2120 pM, the off-rate constant (koff) came to 0.000198 s⁻¹ and the association rate constant (kon) worked out at 93200 M⁻¹ s⁻¹.
With B1, binding was characterised by a dissociation constant (Kd) of 2200 pM, the koff turned out to be 0.00015 s⁻¹ and the kon was found to be 66000 M⁻¹ s⁻¹.
On the same counts, the results for B4 are 1310 pM, 0.000123 s⁻¹ and 94400 M⁻¹ s⁻¹.
B2 registered a Kd of 6600 pM, a koff of 0.00039 s⁻¹ and a kon of 59000 M⁻¹ s⁻¹.
B5 had an equilibrium dissociation constant (Kd) of 470 pM, a koff of 4.2e-05 s⁻¹ and a kon of 90000 M⁻¹ s⁻¹.

In another experiment the target is T2, cynomolgus monkey C-MET His tag, …. The experiment is described as above. The protocol: as §1
B3 gave an equilibrium dissociation constant (Kd) of 870 pM, a koff of 0.000159 s⁻¹ and a kon of 183000 M⁻¹ s⁻¹.
B1: the affinity, expressed as Kd, was 1300 pM; the koff was determined as 0.00021 s⁻¹; the kon amounted to 160000 M⁻¹ s⁻¹.
Molecule B4 returned a Kd of 1030 pM, a dissociation rate constant (koff) of 0.000174 s⁻¹ and a kon of 168000 M⁻¹ s⁻¹.
B2 yielded a Kd of 4300 pM, a koff of 0.00048 s⁻¹ and an on-rate (kon) of 110000 M⁻¹ s⁻¹.
As to B5, the equilibrium dissociation constant (Kd) stood at 460 pM, the off-rate (koff) came to 0.00011 s⁻¹ and the association rate constant (kon) turned out to be 250000 M⁻¹ s⁻¹.

The target of the next experiment is T6, cynomolgus monkey C-MET human Fc tagged recombinant protein (cynomolgus monkey, UniProt A0M8R7 25-932 (Papio anubis entry), limits assumed).
T6 construct: also called cyno C-MET-Fc; cyCMET
T6 sequence (A0M8R7 25-932 S170N/I621T limits assumed): as the sequence (A0M8R7 25-932 S170N/I621T) above
Nature of the experiment: direct titration ELISA on coated cyno C-MET-Fc, IgG4(S228P), OD 450 nm. An excerpt: (§4) FIG. 6A-FIG. 6B. Direct titration ELISA for IgG binding to human and cyno C-MET-Fc proteins. Humanized h224G11, Grafted clone (Graft) and clones 08G07, MH7, MH7-1, MH7-2, MH7-3 in human IgG4(S228P) format were titrated (in nM) in a direct binding ELISA against human (FIG. 6A) and cyno (FIG. 6B) C-MET-Fc proteins.
(§5) Binding and cross-reactivity of the lead panel to the recombinant proteins was initially assessed by binding ELISA. The human C-MET human Fc tagged recombinant protein and the cynomolgus monkey C-MET human Fc tagged recombinant protein were coated to the surface of MaxiSorp™ flat-bottom 96 well plate at 1 μg/ml. The purified IgG samples were titrated in two fold serial dilutions starting from 500 nM to 0.98 nM and allowed to bind to the coated antigens. The Fabs were detected using mouse anti-c-myc antibody followed by donkey anti-mouse IgG conjugated to horseradish peroxidase. The IgGs were detected using the mouse anti-human IgG conjugated to horseradish peroxidase. Binding signals were visualized with 3,3′,5,5′-Tetramethylbenzidine Substrate Solution (TMB) and the absorbance measured at 450 nm. IgG binding analysis via ELISA on negatively charged biomolecular surfaces to calculate off-target binding and PK risk were performed as previously described (see Avery et al., 2018, MAbs 10 (2), 244-255).
In general, EC50 (read off the curve) refers to the concentration that produces a half-maximal response. Take B3: the “EC50 (read off the curve)” value was about 200 pM.
Consider B5, for which the “EC50 (read off the curve)” value was about 200 pM.

A further experiment concerns the target T7, human C-MET human Fc tagged recombinant protein (human, UniProt P08581 25-932).
T7 construct: also called human C-MET-Fc; huCMET
Description: direct titration ELISA on coated human C-MET-Fc, IgG4(S228P), OD 450 nm.
From the text: as §4, §5
Consider B3, for which the “EC50 (read off the curve)” value was about 300 pM.
Same read-out and setting: as for B5, the figure is about 300 pM.

In the next experiment the target is T5, cynomolgus monkey C-MET on stably …. Description: flow cytometry on cyno C-MET-transfected CHO-K1 cells, IgG4(S228P), MFI. The protocol: FIG. 8A-FIG. 8C. Flow cytometric binding to human and cyno C-MET+ CHO-K1 cells for library-derived and primary designer leads. Humanized h224G11, Grafted clone (Graft) and clones 08G07, MH7, MH7-1, MH7-2, MH7-3 in human IgG4(S228P) format were examined for specific binding on human C-MET-transfected (FIG. 8A), cyno C-MET-transfected (FIG. 8B) and untransfected (FIG. 8C) CHO-K1 cells. IgGs were tested at concentrations ranging from 500-0.08 nM. Concentration-dependent binding was observed against both human and cyno cell lines for all C-MET-specific antibodies but not isotype control IgG4.
as §2
On to B3, for which the “EC50 (read off the curve)” value was about 500 pM.
B5: the “EC50 (read off the curve)” value was about 700 pM.

Another experiment has as its target T1, human C-MET His tagged, monomeric. Nature of the experiment: Alphascreen epitope competition in solution: varied IgG4(S228P) against 224G11 IgG4(S228P) binding to biotinylated human C-MET, CPS (crosstalk-corrected). As for the experimental part:
FIG. 7. Epitope competition analysis of IgG4(S228P) proteins in Alphascreen. Anti-Humanized h224G11, Grafted clone (Graft) and clones 08G07, MH7, MH7-1, MH7-2, MH7-3 in human IgG4(S228P) format were titrated (in nM) in an epitope competition assay using Alphascreen technology. In this assay, library-derived and designer IgGs were analysed for their retention of the parental 224G11 epitope by competing for 224G11 IgG4(S228P) binding to human C-MET protein, in solution.
The AlphaScreen assay (Perkin Elmer) was performed in a 25 μl final volume in 384-well white microtiter plates (Greiner). The reaction buffer contained 1×PBS pH 7.3 (Oxoid, Cat. nr. BR0014G) and 0.05% (v/v) Tween® 20 (Sigma, Cat. nr. P9416). Purified IgG samples were titrated in three fold serial dilutions starting at 50 nM final concentration and incubated with biotinylated human C-MET-His (Acrobiosystems) at 1 nM final concentration for 20 minutes at room temperature. The parental IgG and the anti-human IgG4(S228P) Acceptor beads at were added and the mix was incubated for 1 hour at room temperature. Followed by addition of the Streptavidin Donor beads and incubation for 30 minutes at room temperature. The emission of light was measured in the EnVision multilabel plate reader (Perkin Elmer) and analysed using the EnVision manager software. Values were reported as Counts Per Second (CPS) and corrected for crosstalk. […]
Regarding B4, the “IC50 (read off the curve)” value was about 200 pM.
Regarding B5, the “IC50 (read off the curve)” value is about 200 pM.
